Experimental data taken from patent US20220267440A1 (ABSOS, published 2022).

Columns and labels:
[1] = target: T1, recombinant human CD47 (Novoprotein cat no. C321, lot no. 0329689) (human, UniProt Q08722 19-139); assay: SPR, antibodies binned by kd at 25 C (value is the column's head)
T1 construct: Bought reagent
Protocol: (§1) Binding kinetics were measured at 25° C. using a BioRad ProteOn XPR36 optical biosensor equipped with GLM sensor chips and equilibrated with running buffer (HBS, 0.005% TWEEN-20, 0.1 mg/mL BSA, pH 7.4).
(§2) CD47 was tested in a three-fold dilution series starting at 100 nM.

[2] = target: T1, recombinant human CD47 (Novoprotein cat …); assay: SPR (ProteOn XPR36), mAb captured on anti-mouse Fc, CD47 as analyte, 25 C, 1:1 model
Protocol: as §1, §2

[3] = target: T1, recombinant human CD47 (Novoprotein cat …); assay: SPR summary table, 25 C
Protocol: as §1, §2

[4] = target: T2, recombinant CD47-Fc (Sino Biologics) (human, UniProt Q08722 19-139); assay: competition ELISA: HIS-tagged SIRP α binding to plate-bound CD47-Fc, antibody titrated
T2 construct: Bought reagent; also called human CD47-Fc; not shown: Fc

[5] = target: T1, recombinant human CD47 (Novoprotein cat …); assay: SPR (ProteOn XPR36), mAb captured on anti-mouse Fc, CD47 as analyte, 25 C; kd fixed, KD a rough estimate
Protocol: (§3) Affinity was determined for five selected AlivaMab Mouse monoclonal hybridoma supernatants (Biosensor Tools, Salt Lake City, Utah). Binding kinetics were measured at 25° C. using a BioRad ProteOn XPR36 optical biosensor equipped with GLM sensor chips and equilibrated with running buffer (HBS, 0.005% TWEEN-20, 0.1 mg/mL BSA, pH 7.4).
as §2

[6] = target: T1, recombinant human CD47 (Novoprotein cat …); assay: SPR summary table, 25 C; kd fixed
Protocol: as §3, §2

[7] = target: T1, recombinant human CD47 (Novoprotein cat …); assay: SPR summary table, 25 C; dissociation rate constant fixed at 1e-5 s^-1; summary table; kd fixed at 1e-5
Protocol: as §3, §2

[8] = target: T1, recombinant human CD47 (Novoprotein cat …); assay: SPR (ProteOn XPR36), mAb captured on anti-mouse Fc, CD47 as analyte, 25 C; no decay detected, kd fixed at 1e-5 in the fit; no decay seen; kd fixed at 1e-5 in the fit
Protocol: as §3, §2

B1: anti-CD47 AlivaMab antibody 151 (antibody, IgG1, V domains shown)
VH: QVQLQESGPGLVKPSETLSLTCTVSGGSISSYYWSWIRQPPGKGLEWIGYIYYSGSTNYNPSLKSRVTISVDTSKNQFSLKLSSVTAADTAVYYCARKRKYFDYWGQGTLVTVSS
VL: DIQMTQSPSSLSASVGDRVTITCRASQGISNYLAWYQQKPGKVPKLLIYAASTLQSGVPSRFSGSGSGTDFTLTISSLQPEDVATYYCQKCNSAPFTFGPGTKVDIK
notes: Chimeric AlivaMab Mouse mAb from hybridoma: human V, CH1 and upper hinge, mouse middle hinge, CH2 and CH3, human kappa light chain; also called clone 151; mAb 151
koff [1]: ~0.01 s⁻¹
Kd [2]: 1 nM
koff [2]: 0.0089 s⁻¹
kon [2]: 8.7e+06 M⁻¹ s⁻¹
Kd [3]: 1 nM
koff [3]: 0.0089 s⁻¹
kon [3]: 8.7e+06 M⁻¹ s⁻¹
IC50 [4]: 2 nM

B2: anti-CD47 AlivaMab antibody 139 (antibody, IgG1, V domains shown)
VH: QVQLQESGPGLVKPSETLSLTCTVSGGSISNYYWSWIRQPPGKGLEWIGYIYYSGSTNYNPSLKSRVTISVDTSKNQFSLKLSSVTAADTAVYYCARSRYFDLWGRGTLVTVSS
VL: DIQMTQSPSAMSASVGDRVTITCRASQGISIYLAWFQQKPGKVPKRLIYAASSLQSGVPSRFSGSGSGTEFTLTISSLQPEDFATYYCLQHTSYPYTFGQGTKLEIK
notes: Chimeric AlivaMab Mouse mAb from hybridoma: human V, CH1 and upper hinge, mouse middle hinge, CH2 and CH3, human kappa light chain
Kd [5]: ≤ 0.0085 nM
Kd [6]: ~0.009 nM
koff [1]: ≤ 1e-05 s⁻¹
kon [2]: 1.18e+06 M⁻¹ s⁻¹
koff [7]: ≤ 1e-05 s⁻¹
kon [3]: 1.18e+06 M⁻¹ s⁻¹
koff [8]: ≤ 1e-05 s⁻¹
IC50 [4]: 2.2 nM
